Assay results published in article PMC6392501.

Key:
[1] = molecular target: C-terminal twin-Strep-tagged hTMEM266 (human) (UniProt Q2M3C6); assay: cross-linking; air oxidation (disulfide) of membrane fractions of HEK 293T cells expressing Strep-tagged hTMEM266; 10 mM NEM; SDS-PAGE with or without 2-ME; Western blot with anti-Strep antibody
[2] = molecular target: C-terminal twin-Strep-tagged hTMEM266 (human) (UniProt Q2M3C6); assay: cross-linking; DSS (varying concentration) applied to intact HEK 293T cells expressing Strep-tagged hTMEM266; membrane fractions on SDS-PAGE; Western blot with anti-Strep antibody
[3] = molecular target: C-terminal coiled-coil of hTMEM266 (residues 224–289) (human) (UniProt Q2M3C6); assay: non-reducing SDS-PAGE; purified coiled-coil run on SDS-PAGE with or without 2-ME; single species (monomer) with 2-ME, additional band at ~15 kDa without

Substance | stoichiometry N [1] | stoichiometry N [2] | stoichiometry N [3]
C-terminal twin-Strep-tagged hTMEM266 (from UniProt Q2M3C6 1-523) (natural protein) | 2 | 2 | –
C-terminal coiled-coil of hTMEM266 (residues 224–289) (from UniProt Q2M3C6 224-289) (domain or fragment) | – | – | 2
